Laboratory results as given in patent US20120172293A1 (Takeda / Millennium, published 2012).
Non-standard residues stand in square brackets, D forms with d. No end group written: not given here. 1Nal = N[C@@H](Cc1cccc2ccccc12)C(=O)O; 2Nal = N[C@@H](Cc1ccc2ccccc2c1)C(=O)O; Cha = N[C@@H](CC1CCCCC1)C(=O)O; Cit = NC(=O)NCCC[C@H](N)C(=O)O; 4Amb = NCc1ccc(C(=O)O)cc1; hSer = N[C@@H](CCO)C(=O)O; Ac3c = NC1(C(=O)O)CC1; Aib = CC(C)(N)C(=O)O

T1: human Y2 receptor (human, UniProt P49146 1-381)
T1 construct: whole, on cells; used as membrane fraction of hY2R/CHO cells; also called human NPY2R; hY2R
T1 sequence (looked up): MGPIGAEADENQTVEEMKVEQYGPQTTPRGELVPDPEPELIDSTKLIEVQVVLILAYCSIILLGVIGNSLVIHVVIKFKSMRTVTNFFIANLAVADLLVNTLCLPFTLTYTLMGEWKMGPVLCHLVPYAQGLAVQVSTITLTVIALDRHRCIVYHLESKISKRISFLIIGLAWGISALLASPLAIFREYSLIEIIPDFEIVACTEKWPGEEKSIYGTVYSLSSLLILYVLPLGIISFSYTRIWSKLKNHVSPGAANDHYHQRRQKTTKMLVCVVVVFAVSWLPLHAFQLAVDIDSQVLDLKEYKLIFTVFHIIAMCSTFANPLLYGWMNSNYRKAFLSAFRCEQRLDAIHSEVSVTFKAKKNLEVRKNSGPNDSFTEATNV

B1: 4-Aminomethylbenzoyl-[Ala26, Ile28,31, Nal(2)36]-PYY(25-36) (peptide)
peptide: [4Amb]RAYINLITRQR[2Nal]-NH2
modifications: N-terminus assumed
SMILES: CC[C@H](C)[C@H](NC(=O)[C@H](Cc1ccc(O)cc1)NC(=O)[C@H](C)NC(=O)[C@H](CCCNC(=N)N)NC(=O)c1ccc(CN)cc1)C(=O)N[C@@H](CC(N)=O)C(=O)N[C@@H](CC(C)C)C(=O)N[C@H](C(=O)N[C@H](C(=O)N[C@@H](CCCNC(=N)N)C(=O)N[C@@H](CCC(N)=O)C(=O)N[C@@H](CCCNC(=N)N)C(=O)N[C@@H](Cc1ccc2ccccc2c1)C(N)=O)[C@@H](C)O)[C@@H](C)CC
notes: also called compound No. 14
B2: Ac-[D-Pro24, Cha27,36, Hse28, Aib31]-PYY(23-36) (peptide)
peptide: Ac-S[dP]RH[Cha][hSer]NL[Aib]TRQR[Cha]-NH2
SMILES: CC(=O)N[C@@H](CO)C(=O)N1CCC[C@@H]1C(=O)N[C@@H](CCCNC(=N)N)C(=O)N[C@@H](Cc1c[nH]cn1)C(=O)N[C@@H](CC1CCCCC1)C(=O)N[C@@H](CCO)C(=O)N[C@@H](CC(N)=O)C(=O)N[C@@H](CC(C)C)C(=O)NC(C)(C)C(=O)N[C@H](C(=O)N[C@@H](CCCNC(=N)N)C(=O)N[C@@H](CCC(N)=O)C(=O)N[C@@H](CCCNC(=N)N)C(=O)N[C@@H](CC1CCCCC1)C(N)=O)[C@@H](C)O
notes: also called compound No. 144
B3: 4-Aminomethylbenzoyl-[Ala26, Ile28,31, Nal(1)36]-PYY(25-36) (peptide)
peptide: [4Amb]RAYINLITRQR[1Nal]-NH2
modifications: N-terminus assumed
SMILES: CC[C@H](C)[C@H](NC(=O)[C@H](Cc1ccc(O)cc1)NC(=O)[C@H](C)NC(=O)[C@H](CCCNC(=N)N)NC(=O)c1ccc(CN)cc1)C(=O)N[C@@H](CC(N)=O)C(=O)N[C@@H](CC(C)C)C(=O)N[C@H](C(=O)N[C@H](C(=O)N[C@@H](CCCNC(=N)N)C(=O)N[C@@H](CCC(N)=O)C(=O)N[C@@H](CCCNC(=N)N)C(=O)N[C@@H](Cc1cccc2ccccc12)C(N)=O)[C@@H](C)O)[C@@H](C)CC
notes: also called compound No. 13
B4: Ac-[D-Pro24, Cit27, Cha28,36, Aib31]-PYY(23-36) (peptide)
peptide: Ac-S[dP]RH[Cit][Cha]NL[Aib]TRQR[Cha]-NH2
SMILES: CC(=O)N[C@@H](CO)C(=O)N1CCC[C@@H]1C(=O)N[C@@H](CCCNC(=N)N)C(=O)N[C@@H](Cc1c[nH]cn1)C(=O)N[C@@H](CCCNC(N)=O)C(=O)N[C@@H](CC1CCCCC1)C(=O)N[C@@H](CC(N)=O)C(=O)N[C@@H](CC(C)C)C(=O)NC(C)(C)C(=O)N[C@H](C(=O)N[C@@H](CCCNC(=N)N)C(=O)N[C@@H](CCC(N)=O)C(=O)N[C@@H](CCCNC(=N)N)C(=O)N[C@@H](CC1CCCCC1)C(N)=O)[C@@H](C)O
notes: also called compound No. 146
B5: Ac-[D-Pro24, Cha27,36, Acpc28, Aib31]-PYY(23-36) (peptide)
peptide: Ac-S[dP]RH[Cha][Ac3c]NL[Aib]TRQR[Cha]-NH2
SMILES: CC(=O)N[C@@H](CO)C(=O)N1CCC[C@@H]1C(=O)N[C@@H](CCCNC(=N)N)C(=O)N[C@@H](Cc1c[nH]cn1)C(=O)N[C@@H](CC1CCCCC1)C(=O)NC1(C(=O)N[C@@H](CC(N)=O)C(=O)N[C@@H](CC(C)C)C(=O)NC(C)(C)C(=O)N[C@H](C(=O)N[C@@H](CCCNC(=N)N)C(=O)N[C@@H](CCC(N)=O)C(=O)N[C@@H](CCCNC(=N)N)C(=O)N[C@@H](CC2CCCCC2)C(N)=O)[C@@H](C)O)CC1
notes: also called compound No. 145

Biological target: T1, human Y2 receptor
Assay: RBA: [125I]-PYY displacement, hY2R/CHO membranes
Method in brief: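 Bound radioligand was collected by filtration on PEI-treated GF/C filters, washed with Tris/MgCl₂/NaCl/CHAPS buffer pH 7.4, and counted by scintillation; IC₅₀ values were calculated.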

| IC50 Ratio (vs PYY(3-36)) [ratio] | Binder |
| --- | --- |
| 14 | B1 |
| 22 | B2 |
| 7.6 | B3 |
| 36 | B4 |
| 160 | B5 |

Biological target: T1, human Y2 receptor
Assay: cell-based or functional assay

| GBA EC50 Ratio (vs PYY(3-36)), [35S]GTPγS [ratio] | Binder |
| --- | --- |
| 6.9 | B1 |
| 4.5 | B2 |
| 3.6 | B3 |
| 5.6 | B4 |
| 17 | B5 |
